Data as given in patent publication US20240182908, “DEOXYRIBONUCLEOSIDE OR DEOXYRIBONUCLEOTIDE HAVING NOVEL ARTIFICIAL BASE APPLICABLE TO SCREENING FOR DNA APTAMER, AND NUCLEIC ACID CONTAINING THE SAME” (TAGCYX BIOTECHNOLOGIES INC., published 2024).
Like-named read-outs stand apart in the source and are kept apart here.

What was measured:
[1] = biological target: T1, VEGF165 (UniProt P15692-4 P15692-4:27-191); test: EMSA; PBS + 0.005% NP-40, 37 C; shift band lost; conditions: chain copies: 2
Method: (§1) Analysis was performed by EMSA on whether the most concentrated candidate sequence binds to the target protein. First, an oligomer corresponding to the candidate sequence (T-00244, see below for the sequence in Table 8) was synthesized with a chemical synthesis method, and purified with an OPC (cartridge). The purified oligomer of the candidate sequence was added into the binding solution to adjust to 0.2 μM, and a folding operation (at 95° C., for 5 minutes→(−0.1° C./sec)→at 25° C.) was performed to form tertiary structures. Thereafter, VEGF165 was diluted with the binding solution to 0.2 μM and mixed with the folded DNA solution, and the resultant was incubated at 37° C. for 30 minutes. The sample incubated was subjected to electrophoresis with 8% unmodified polyacrylamide gel to analyze on whether a band indicative of the DNA-protein complex could be detected. DNA was stained with SYBR Gold, and detected with blue light at 470 nm.
(§2) Subsequently, to determine whether the novel artificial base dDscp is involved in binding to VEGF165, evaluation was performed with oligomers obtained by substituting dDscp with dDs or dA (dDs-substituted form: T-00245, dA-substituted form: T-00246, see below for the sequences in Table 8). The oligomers were synthesized with a chemical synthesis method, and purified with an OPC (cartridge). […]

[2] = biological target: T2, sIL-6R (soluble interleukin-6 receptor) (UniProt P08887 P08887:20-355); test: EMSA; PBS + 0.005% NP-40, room temperature; shift band lost
Method: as §1, with “candidate sequence (T-00247, see below” for “candidate sequence (T-00244, see below”, “in Table 9) was synthesized” for “in Table 8) was synthesized”, “structures. Thereafter, sIL-6R was diluted” for “structures. Thereafter, VEGF165 was diluted”, “solution to 0.6 μM and” for “solution to 0.2 μM and”, “incubated at room temperature for 30” for “incubated at 37° C. for 30”
as §2, with “sIL-6R,” for “VEGF165,”, “T-00248,” for “T-00245,”, “T-00249,” for “T-00246,”, “9).” for “8).”

[3] = biological target: T2, sIL-6R (soluble interleukin-6 receptor); test: as above; remark: listed apart in the source
Method: (§3) The purified oligomer of the candidate sequence was added into the binding solution to adjust to 0.2 μM, and a folding operation (at 95° C. for 5 minutes→(−0.1° C./sec)→at 25° C.) was performed to form tertiary structures. Thereafter, sIL-6R was diluted with the binding solution to 0.2 μM and mixed with the folded DNA solution, and the resultant was incubated at room temperature for 30 minutes. The sample incubated was subjected to electrophoresis with 8% unmodified polyacrylamide gel to analyze on whether a band indicative of the DNA-protein complex could be detected. DNA was stained with SYBR Gold, and detected with blue light at 470 nm (two lanes in the left in FIG. 4).
Subsequently, to determine whether the novel artificial base dDsbn is involved in binding to sIL-6R, evaluation was performed with oligomers obtained by substituting dDsbn with dDs or dA (dDs-substituted form: T-00203, dA-substituted form: T-00204, see below for the sequences in Table 5). The oligomers were synthesized with a chemical synthesis method, and purified with an OPC (cartridge). For EMSA, a folding operation, reaction, and analysis with unmodified polyacrylamide were performed as described above (FIG. 4).

[4] = biological target: T1, VEGF165; test: EMSA; PBS + 0.005% NP-40, 37 C; shift band lost; conditions: chain copies: 2; remark: listed apart in the source
Method: as §3, with “sequence (T-00199, see below for the sequence in Table 4)” for “sequence”, “VEGF165” for “sIL-6R”, “37° C.” for “room temperature”, “10%” for “8%”, “nm.” for “nm (two lanes in the left in FIG. 4).”
Subsequently, to determine whether the novel artificial base dDsbn is involved in binding to VEGF165, evaluation was performed with oligomers obtained by substituting dDsbn with dDs or dA (dDs-substituted form: T-00200, dA-substituted form: T-00201, see below for the sequences in Table 4). The oligomers were synthesized with a chemical synthesis method, and purified with an OPC (cartridge). For EMSA, a folding operation and reaction were performed as described above, and analysis was performed with unmodified polyacrylamide (in FIG. 2, dDs: two lanes in the center, dA: two lanes in the right).

T1 sequence (P15692 other isoform, or with tags, fused parts or gaps): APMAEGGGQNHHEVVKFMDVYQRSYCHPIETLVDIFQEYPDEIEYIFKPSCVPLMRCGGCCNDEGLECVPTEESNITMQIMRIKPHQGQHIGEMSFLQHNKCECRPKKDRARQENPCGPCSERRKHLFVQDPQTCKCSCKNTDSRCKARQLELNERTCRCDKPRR
T2 sequence (P08887 20-355, one chain of several): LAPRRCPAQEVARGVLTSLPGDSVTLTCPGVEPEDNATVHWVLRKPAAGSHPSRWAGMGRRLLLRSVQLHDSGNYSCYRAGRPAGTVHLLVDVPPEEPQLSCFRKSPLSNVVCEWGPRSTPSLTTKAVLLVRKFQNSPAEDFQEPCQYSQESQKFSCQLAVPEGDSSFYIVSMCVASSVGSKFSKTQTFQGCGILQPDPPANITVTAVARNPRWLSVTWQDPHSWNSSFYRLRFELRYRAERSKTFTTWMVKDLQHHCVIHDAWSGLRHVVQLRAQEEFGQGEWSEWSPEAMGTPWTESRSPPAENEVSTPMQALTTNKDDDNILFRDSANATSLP

B1: T-00246 (ssDNA)
DNA: GCGTGTTGAGCTGTATTAGGGTGTCAGGTTTTGGTCAGGCGTTCAAACGTAGAGGAATGGACACTTCGGCGATACAATCCTGATCCATGAGACGG
B1: no binding [1].

B2: T-00249 (ssDNA)
DNA: GCGTGTTGAGCTGTATTAGGGTGTCAGGAAGGATTCGGGGGTGGATTTAGGGGGGGATCGTTGTGGAGGCGATACAATCCTGATCCATGAGACGG
B2: no binding [2].

B3: T-00204 (ssDNA)
DNA: CTCCATTGACTCGGCTTAAACTCCCAGGAGGTGGTGGGGGTGGGATTAGGGTTGGGATTGGAGGGGTGTCGGTCATATTGGGGTGCTCCTTGGCT
B3: no binding [3].

B4: T-00201 (ssDNA)
DNA: CTCCATTGACTCGGCTTAAACTCCCGTCAGTTATGAATAGGTACGCATGCGGAGTTCGCTACCCCGCCATGGTCATATTGGGGTGCTCCTTGGCT
B4: no binding [4].
